Assay results published in patent US10829545 (MIT, dated 2020).

B1: mAb 7 (antibody, V domains shown)
VH: EVQLLESGGGLVQPGGSLRLSCAASGFSFSTYSMHWVRQAPGKGLEWVSAISGEGDSAYYADSVKGRFEISRDNSKNTLYLQMNKVRAEDTAVYYCVGGYSNFYYYYTMDAWGQGTMVTVSS
VL: DIVMTQSPASLSLSPGERATLSCRATQSIVTFLAWYQQKPGQAPRLLIYDASTNASGIPARFSGSRSGTDFTLTITRLEPEDFAVYYCQQRYNWPPYSFGQGTKLEIK
notes: also called VH.2 / VL.4
B2: mAb 8 (antibody, V domains shown)
VH: EVQLLESGGGLVQPGGSLRLSCAASGFSFSTYSMHWVRQAPGKGLEWVSAISGEGDSAYYADSVKGRFTISRDNSKNTLYLQMNKVRAEDTAVYYCVGGYSNFYYYYTMDAWGQGTMVTVSS
VL: DIVMTQSPASLSLSPGERATLSCRATQSISTFLAWYQQKPGQAPRLLIYDASTRASGIPARFSGSRSGTDFTLTITRLEPEDFAVYYCQQRYNWPPYSFGQGTKLEIK
notes: also called VH.1 / VL.2
B3: mAb 6 (antibody, V domains shown)
VH: EVQLVESGGGLVQPGGSLRLSCSASGFSFSTYSMHWVRQAPGKGLEYVSAITGEGDSAFYADSVKGRFTISRDNSKNTLYFEMNSLRPEDTAVYYCVGGYSNFYYYYTMDAWGQGTSVTVSS
VL: EIVLTQSPASLSLSPGERATLSCRATQSISTFLAWYQHKPGQAPRLLIYDASTRASGVPARFSGSRSGTDFTLTISSLEPEDFAVYYCQQRYNWPPYSFGQGTKVEIK
notes: also called VH.3 / VL.1
B4: fusion loop targeting pan-flavivirus antibody (4G2) (antibody, V domains shown)
VH: EVQLQQSGPELVKPGTSVKISCKTSGYTFTEYTIHWVKQSHGKSLAWIGGIDPNSGGTNYSPNFKGKATLTVDKSSSTAYMDLRSLSSEDSAVYFCARIYHYDGYFDVWGAGTAVTVSS
VL: DIKMTQSPSSMYASLGERVTITCKASQDINSYLTWFQQKPGKSPKTLIYRANRLIDGVPSRFSGSGSGQDYSLTISSLDYEDMGIYYCLQYDEFPPTFGGGTKLEIKR

How the values were obtained:
[1] = biological target: T1, Zika virus envelope protein (EP), strain ILM (Brazil Paraiba 2015), on whole virus (Zika virus)
T1 construct: also called Zika strain ILM

[2] = biological target: T1, Zika virus envelope protein (EP), …; experiment: cell-based or functional assay

Binder | Kd [1] [µg/mL] | PRNT50 (plaque reduction neutralization test on BHK-21 cells) [2] [µg/mL]
B1 | 5.21 | –
B2 | 19.3 | 5.12
B3 | 3.85 | 0.0597
B4 | 6.41 | –
